The supplement of paper PMC9170038

Assays:
[1] = tested on: MS2 coat protein; assay: apparent KD of MS2 coat protein; designed switch direction (-1 OFF switch, 1 ON switch): -1; higher = weaker reporter binding; conditions: Eterna round: R98
Procedure: (§1)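 RNA-MaP: designed FMN/MS2 RNA switches (84 nt design region) are transcribed on-chip within common flanks and titrated with SNAP-549-labelled MS2 coat protein (about 1-3000 nM) in 100 mM Tris pH 7.5, 80 mM KCl, 4 mM MgCl2, without or with 200 uM FMN. Median apparent KD per design; activation ratio = KD,OFF / KD,ON.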

[2] = tested on: MS2 coat protein; assay: apparent KD of MS2 coat protein; higher = weaker reporter binding; conditions: Eterna round: R101
Procedure: as §1

| Sequence | apparent KD of MS2 coat protein ([1]; input ligand: FMN 200 uM) | apparent KD of MS2 coat protein ([1]; input ligand: none) | apparent KD of MS2 coat protein ([2]; input ligand: FMN 200 uM) | apparent KD of MS2 coat protein ([2]; input ligand: none) |
| --- | --- | --- | --- | --- |
| UAAGUCGGAAGAUAAUAAUGAAUACAUGAGGAUCACCCAUGUAAGGAUAUGCAGUGGAAUACACUGCAGAAGGUACAAACCGAC [Exclusion NG 3/17-A2] | 24.6 nM | 15.2 nM | – | – |
| AUGCCGUGCAGAGCGCAACGGCGUACAUGAGGAUCACCCAUGUAGGAUAUACUACACAAAGUGUAGUAGAAGGACAUGCGACUG [Ex NG2 #93] | 185 nM | 56.7 nM | – | – |
| GAACUCACGGCAUGCAUAUAAGCACAUGAGGAUCACCCAUGUCAGGAUAUCCACGGUCGUGCUUCGGAGAAGGGACAUGAGGCG [Lainxe] | 48 nM | 51.7 nM | – | – |
| UCUUAAAUGAUCCUAUUUACCAACAUGAGGAUCACCCAUGUGCAGGAUAUGCUAAAGAUAAAUAAGCAGAAGGGCAAUAACCGC [JR_ExcNG3_Sub007] | 608 nM | 127 nM | – | – |
| AAAAGAACCCGAGGAUAUGCGAAAUCACGAAGAGCAGAAGGCGGCUACAUGUGGAUCCGAGGACAUGAGGAUCACCCAUGUACG [Iszaaatce] | 165 nM | 321 nM | – | – |
| UCAUACAUGAGGAUCACCCAUGACAUGAGGAUCACCCAUGUGCAGGAUAUACGUGAUAUAAUAUAGUAGAAGGGCAGACUAUAA [LRO006_Exclusion NG 3] | 53 nM | 39.8 nM | – | – |
| GGUACUCAAAGAGUACCAAUACGAACAUGAGGAUCACCCAUGUAGGAUAUGCUACUCAAAGAGUAGCAGAAGGACAUGUGUAAA [OmeiMod 10 - Jieux - Exclusion NG 3] | 567 nM | 92.4 nM | – | – |
| CUGUGACGGAUCCAGAAUUACAACAUGAGGAUCACCCAUGUGCAGGAUAUCGGGUUGAUAGGCGCCGAGAAGGGUAUGAUCACG [Ex NG2 #37] | 77.3 nM | 80 nM | – | – |
| AAUAUAAAGAGCUGGCUUCUAAUAACAUGAGGAUCACCCAUGUAGGAUAUCAGCACGAUAAGUGCUGAGAAGGACAUCCAGCUC [Denovo 53] | 14.3 nM | 14.4 nM | – | – |
| ACACGUCGUGAGAAGGAGGAUCACCCUUUCGAAAGAAAUAGCCACCGUGAAAACGGUGGCAGAUUUUAGGAUAUCACGACGUGA [#SharedSequence - IExNG2: 9] (puzzle (switch architecture): Inverted Exclusion NG 2) | – | – | 113 nM | 88.3 nM |
| GUGGUUGUCGUAGGAUAUGUAGGAUAUUCCUACAUGAGGAUCACCCAUGUUCGCAUGGAAGAAGGACAGAAGGACGAUGACCAG [salish99_SSNG2_011 #endbits investigation] (puzzle (switch architecture): Same State NG 2) | – | – | 9.85 nM | 855 nM |
| AAAUAAAUUGAAGGAUAUCAGGGUGCACCUCAGUAAAACUGAGGUGCACCCUGAGAAGGUCGAGGAUCACCCGACCUAAAUAAA [#SharedSequence SLExNG1: 4-2] (puzzle (switch architecture): Small Loop Exclusion NG 1) | – | – | 8.37 nM | 7.63 nM |
| AGGAGAAAUGUAGGAUAUAUAUAUAUAUAUGGGCAAAGCGCAUAUAUAUAUAUAGAAGGACAUGAGGAUCACCCAUGUUUCCCU [#Lowering the energy 11] (puzzle (switch architecture): Small Loop Exclusion NG 1) | – | – | 10.9 nM | 10.8 nM |
